Laboratory results from a protein production outcome set (Wang et al. 2014).

Assay: label from the status in PepcDB records
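Note: failed if final PepcDB status was selected cloned or expressed and not failed if soluble or beyond.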

Sequence | protein production
MDTSNATSVVNVSASSSTSTIYDLGNMSKDEVVKLFEELGVFQAAILMFSYMYQAQSNLSIAKFADMNEASKASTTAQKMANLVDAKIADVQSSTDKNAKAKLPQDVIDYINDPRNDISVTGIRDLSGDLSAGDLQTVKAAISAKANNLTTVVNNSQLEIQQMSNTLNLLTSARSDVQSLQYRTISAISLGK | failed
MATESSSPSSVRKVVVHLRATGGAPILKQSKFKIPGTDKFAKVIDFLRRQLHSDSLFVYVNSAFSPNPDESVIDLYNNFGFDGKLVVNYACSMAWG | failed
MTFRNCVAVDLGASSGRVMLARYERECRSLTLREIHRFNNGLHSQNGYVTWDVDSLESAIRLGLNKVCEEGIRIDSIGIDTWGVDFVLLDQQGQRVGLPVAYRDSRTNGLMAQAQQQLGKRDIYQRSGIQFLPFNTLYQLRALTEQQPELIPHIAHALLMPDYFSYRLTGKMNWEYTNATTTQLVNINSDDWDESLLAWSGANKAWFGRPTHPGNVIGHWICPQGNEIPVVAVASHDTASAVIASPLNGSRAAYLSSGTWSLMGFESQTPFTNDTALAANITNEGGAEGRYRVLKNIMGLWLLQRVLQERQINDLPALISATQALPACRFIINPNDBRFINPETMCSEIQAACRETAQPIPESDAELARCIFDSLALLYADVLHELAQLRGEDFSQLHIVGGGCQNTLLNQLCADACGIRVIAGPVEASTLGNIGIQLMTLDELNNVDDFRQVVSTTANLTTFTPNPDSEIAHYVARIHSTRQTKELCA | not failed
MTVGQVLRSYPQTVQTFLELGMHCLGCPSSTMESIEGAALTHGKKPDELVEKLNKVIAANLEHHHHHH | failed
MFQRKTLQRRNLKGLNLNLHPDVGNNGQLQEKTETHQGQSRIEGHVMSNINAIQNNSNLFLRRGIKKKLTLDAFGDDQAISKPNTVVIQQPQNEPVLVLSSLSQSPCVSSSSSLSTPCIIDAYSNNFGLSPSSTNSTPSTIQGLSNIATPVENEHSISLPPLEESLSPAAADLKDTLSGTSNGNYIQLQDLVQLGKIGAGNSGTVVKALHVPDSKIVAKKTIPVEQNNSTIINQLVRELSIVKNVKPHENIITFYGAYYNQHINNEIIILMEYSDCGSLDKILSVYKRFVQRGTVSSKKTWFNELTISKIAYGVLNGLDHLYRQYKIIHRDIKPSNVLINSKGQIKLCDFGVSKKLINSIADTFVGTSTYMSPERIQGNVYSIKGDVWSLGLMIIELVTGEFPLGGHNDTPDGILDLLQRIVNEPSPRLPKDRIYSKEMTDFVNRCCIKNERERSSIHELLHHDLIMKYVSPSKDDKFRHWCRKIKSKIKEDKRIKREALDRAKLEKKQSERSTH | failed
YGNVWPWKSYEHVVAIAGGIGIPPIKALIEDMQGHTSLDKLTVLYGARSPSDIVYRSEIETWKEEMDFRITVDKGDENWRGHVGVVTTLVPEIKEYNHGAAFVIGPPVMMKFSVKSLLDAGFAEDNIYLSLERRMECG | failed
TVLYVHGGAWFQDPLENHFEYLDLLVDALDARVIMPVYPKIPHRDYRTTFELLTKIYKRLLTKIDEPENLVIIGDSAGGQIALAFAQMLKKEQLSQPGHIVLISPVLDATFKNPEARKYEKEDPMLGIDGSKYLVELWAGDAPLDDYKMSPMNGDLEGLGHITLTVGTKETLYPDAVKFSHMLNDKGIKHQFIPGYNLFHIYPLFPIPERQRFLEQLKKIIVTKEL | failed
RKEMTAACTPRRRIINLTSVLSLQEEINEQGHEVLREMLHNHSFVGCVNPQWALAQHQTKLYLLNTTKLSEELFYQILIYDFANFGVLRLSEPAPLFDLAMLALDSPESGWTEEDGPKEGLAEYIVEFLKKKAEMLADYFSLEIDEEGNLIGLPLLIDNYVPPLEGLPIFILRLATEVNWDEEKECFESLSKECAMFYSIRKQYISEESTLSGQQSEVPGSIPNSWKWTVEHIVYKALRSHILPPKHFTEDGNILQLANLPDLYKVFERC | failed
MLTHHKNKLKTIEWTSYVWLAYLPYTIAAYIPVKSWHDWLWLLLVGGFLVLYILVVEKPHWRAVTMPAELVVTGLFAVFAANNFMIIFPGWQVSFLLGRRPKREFYGFALGYYAFLIGGCIRDYLQYPGVFGWHNGDVMGLVFPLLSPILAYTFSWSVERQRQLNQTNRRLKTIVERNERERIARDLHDTLGQSFSMITLKTELAKKLLVKAPEKVAPELDEIEQTSRQNLQLVREIVNNLHEQSLTEVLLAQTRNLAAVGVWTTTTGETQATKWPTTVQSCFAAVLVEAMTNVMRHAHAHEVRIDFVETAKIYQIKLKDDGKGGTLIRQGANGIAGMRTRLQAKQGTFAITSSRRGTQLILTLPKE | failed
MQAMTERLEAMLAQGTDNMLLRFTLGKTYAEHEQFDAALPHLRAALDFDPTYSVAWKWLGKTLQGQGDRAGARQAWESGLAAAQSRGDQQVVKELQVFLRRLAREDALEHHHHHH | not failed
MPYKLTLEACTKCGTCAEACTMYLGSGRKKIYSPVYRSDMLRKIYKKHFTLTGKLFGPLIGAKDPTEDDINALAESAYRCTVCRRCALACPFGLDNGLITRETRKIFADLGILEHHHHHH | not failed
MVAHSLVPLSPAAHAARLSSPSPRSLPQAPPVVLAVPPINRRTILVGLGGALWSWNALAAKEEAMAAARRPPPPPPKEKKDPTVTGVQAKVLASKKRKEEMKASIAKLREKGKPVVEAKPSSSSSE | failed
SIQKDLANIAEVEVSIPAKLHNSLIGTKGRLIRSIMEECGGVHIHFPVEGSGSDTVVIRGPSSDVEKAKKQLLHLAEEKQTK | not failed
MKLRTQISILLIVFAVLLSGIVFAGFQLNKESVTGRQLDETTQHSERIAAGLDTRLKGLKRTVRLQATNPAIAAHGTPQQHYALKTMVNETMFNGVSVIHRNGTMTGIAAGLDPETRSELIGSDFSDRHYFQRARNGETYISAPVVADSGNYIVTISTPIYRDGAVVGTLNAALHLQDSSIFRMASKTANRDSSVFIRTQSGNQIYNRSAHLSSDPVTANATVNETGWIVQVQTSRNVLAGDLRTVTIYQLGGIGLVLALISGFGSILYTQILRYHRQLVRGFEALQRQEYGQQVAEEATGDWGQIFTAFNELSQTLAEYEEERVKHRNELQQERDRFRRLFQSIPEPAVVVEYTGNKTLIHNVNEAFEETFGYEASNAVGGDINDFIVPDGSLEEAESIDQLSSSGKQVTHEVRREAADGKRDFLLRSTPAVDGEDEVYFGVYIDITDRKQQERELTETNSVLSSVLDNMPVGILIEDADRTITTANKKLLDILDVSLTPSGLIGCEYAEIAETLKTQFADPDQFNETVNKIHSTRDAVFDEELLMADGRILARSYVSYSLPDGTGNIWLYRDITKNRQRERKLRETLEKTQKLIQAESIDEAATIAVEIANQTLSFPLSSVHLERKDGELEPAAITDAFEEGVGDTPVYQRTADNSSIDKLVWDVYTSGETRVLTDTGAEIPETISGMPSSGGIIQPMTNHGVLVTLGDSPNRFDEFDQYLVELLGAILATTLDRINQKQQIESQRDNLDLLNQIVRHDIRNDLQILLGRLDLLAERANDAQSEHVNAALRCAENAVELTQSARELSEVLLQNGTDSKPISLNRVVRQQIEEIRSANTDAEITINGSIPDVMIRANEMFDSVIRNLLKNAIQHNDKQDPEITISAIDQKEYVQLRIADNGPGVRDAQKESIFGKGEKELESSGTGIGLYLVSTLIESYGGDVWVEDNNPRGAVFVIELVKDS | failed
MASEHFDMWESRFSADGYLFGTAPNAFLASCHDLLPKQGRALAIADGEGRNGVFLAECGLSVLSVDFSPTAQAKAHKLAAERGVTIETRTADLLSWQWPGGFDVIAGIFFQFVEPEQRPQIFQQIRAALKPGALLLIEGYRPKQLAYKTGGPSRAENLYTRELLEQAFGDFDNLSIRERDSEIVEGAGHAGLSALIDLIGWKPKLEHHHHHH | not failed
MILPWLILIPFIGGLLCWLGERFGATLPRWIALLTMTLELALGLWLWAHGNYSFAPAPGADPTWAIEFKHVWIERFGINVHLALDGLSLLMILLTGLLGILSVLCSWKEIQRHVGFFHLNLMWILGGVVGVFLALDLFMFFFFWEMMLVPMYFLIALWGHSSADGKKTRIYAATKFFIFTQASGLIMLVAILGLVLVNFNNTGVITFDYAQLLKTKMSTATEYILMLGFFIAFAVKLPVVPFHSWLPDAHAQAPTAGSVDLAGILLKTAAYGLLRFALPLFPNASAEFAPIAMTLGLIGIFYGAFLAFAQTDIKRLIAFSSVSHMGFVLIGIYSGSQQALQGAVIQMLAHGVSAAALFILSGQLYERTHTRDMREMGGLWSRIAYLPAISLFFAAASLGLPGTGNFVGEFLILIGTFVSAPWITAIATSGLVFGSVYSLIMIHRAYFGPSKSDAVLHGMDARELIMVLGLAVLLIYIGVYPQPFLDTSAATMHGVQQWLSTAFTQLASAR | failed
MDRRLKKCSTSTDVESVHDVSKVTDPLQKAKRELDNVEIKEKQKKQKNQNETSEKETKKFSTVYEKFNDTIKELDRVSGTCPIRPAIPFTPPKEKVEPIYHNECNFDDKAHLGVSDSALFVQGFDTSHPRHEIKTALWNHFSSCGKVYLIYVPIACSTGASVGYAFIDMKNETKGLTLNGSHLGGRKIDVMFAIDREEFYFSSNLKHCQRCRNYRPWLVLKAMSDACFEYHQRIKPRIVGTPHSKIGRFTAIIGRRSYS | failed
IGGHVGYGVAKSYRGKGYATILLEKALDELKTLNVEVVLMTCNPLNFASQTVMKKCGGYQIESYIKKNGKPVHRYHIPNT | failed
MKKQLIILTTLSTCIFLSACNDNNDSGSYVSSPSIPENNIQNPVVRMDAYTSTDMSLVANESLLMTYKMLGINNKEVQATALVFTPKGVPPVGGWPIVAWAHGTTGVADVCAPSRNVMDENVKTMITQLLAQGYVVVAPDYEGLGEPSGKEIHPFLNVKSEAYSITDAVVAAKSYLGAKAATRWVAVGHSQGGQAALGAAQYASRAKLTYKGTIAVAPASNLDLILNAGELSAANQPVAVQIPTYTNLDTYTALITAGLRNPNPSLQYSQIFKTPSDSIAAQAESVCAPALGQSFAAGLTEYSNKNNNTLVGYGRTQDGFLNLPVVKNFTSTDGQPLTVKVSTPIKIYQGQADTTVPLIATNKLVTEAKLAGTNINFITNETWTHGSAYSLNISNIVTDVNTLFTQ | failed
MGHHHHHHSHELLVVGSRPELGRWEPRGAVRLRPAGTAAGDGALALQEPGLWLGEVELAAEEAAQDGAEPGRVDTFWYKFLKREPGGELSWEGNGPHHDRCCTYNENNLVDGVYCLPIGHWIEATGHTNEMKHTTDFYFNIAGHQAMHYSRILPNIWLGSCPRQVEHVTIKLKHELGITAVMNFQTEWDIVQNSSGCNRYPEPMTPDTMIKLYREEGLAYIWMPTPDMSTEGRVQMLPQAVCLLHALLEKGHIVYVHCNAGVGRSTAAVCGWLQYVMGWNLRKVQYFLMAKRPAVYI | failed
MKATTSLATSCRRLLLWGVLTLQCLFSTAQKRFTADVEQQAEKILSQMTLDEKLSYIGGINWMYTRPLERFGIPRLKMSDGPQGLGTHGPSTAYPCALMLAATWNEQLATEYGSALGKDCRARGVHVLLGPAVNIYRAPMCGRNFEYMGEDPYLTSRMATGYIKGVQGQGVMATIKHFIANNSDYDRDHISSDIDERTLNEIYFPSFRAAVQEAEVGAVMSSYNLLNGIYTTEHPWLLKDVLRQQWGFKGILMSDWGSTHHCIPAVKGGLDLEMPAGSKMQPEELKYYLRTGDITIETIDEKVRHILQTLLAFGFRETQQPDTHIPLKNPQCAQTALNVASEGLVLLKNTNQILPIRSGKVKTIAVVGKNAQGYVCGGGSGEVHPFQYVSVLDGIRKEAAERDIRVEYLDVYDYLPTIIFTDTERKQKGFRAQYFDNMNLEGTPKVEQTETKINYSWSGGTGLKEMPKEQFSVRWNGTICPQETDEYLFTLGGDDGYRLYIDGKLIADEWHEGAFRNSTYRCMLEAGKKYDLKIEYFQKGGGAAVNFIWKQKNASNNLFVEALNRNDLVVACIGFNSDTEGEGRDRTFELPEDEAQLLQNTLQSKRPVVGIVNAGGNVEMQSWEPSLKGLLWAWYGGQEAGTAIARTLFGELNPSGKLPITFEKRWEDNPTFHSYYDPDGDKHVEYAEGIFVGYRGYDKLKREVQYPFGYGLSYTRFKLSAPTVGTPKTDGSVTVTCKLTNTGRTAGAEVVQLYVSNKDTTVEHPEKELKGFRKVYLEPGETKSIEITVPAEAFSHYDTGSRRFVIDRGSHDILLGFSSRDIKAKMSVGISR | failed
